# The supplement of paper PMC10567573
# ± gives the standard deviation.
# Assay: protein stability index of a GFP-peptide fusion (GPS, HEK-293T) (PSI 1-6); higher = more stable
# Settings: c terminus: a fixed tail appended
# 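Note: 24-mer peptide tiles fused after GFP, lentivirally expressed, FACS-sorted into six equal bins by GFP/DsRed ratio, decoded by Illumina sequencing, PSI is the read-weighted mean bin number.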
Sequence,protein stability index (treatment: DMSO),"protein stability index (treatment: MLN4924 1 uM, 8 h)"
RMRYLNGLDPEPLPLMDLCRRSVR [SPSB1],3.21 ± 0.27,3.36 ± 0.1
RNGAVRRFGQTIQSFTLRGDHRSP [NET1],3.36 ± 0.31,3.49 ± 0.13
RNIMNLIDIVAIIPYFITLGTELA [KCNA3],2.84 ± 0.4,2.97 ± 0.21
RNRAITARRQHLKSVMLQIAATEL [TNNI2],2.4 ± 0.25,2.72 ± 0.33
RPFDCPVCNKKFKMKHHLTEHMKT [ZBTB22],2.77 ± 0.23,3.47 ± 0.53
RPGQAPIGNPPVGPIGGMMPPQPG [ZNF207],4.14 ± 0.22,4.28 ± 0.38
RPIGEFRSNADYQYQLLRCNVDLL [CNOT7],2.5 ± 0.2,2.47 ± 0.16
RPSEIKDYSPYFKTIEDLRNKIIA [KRT16],2.28 ± 0.18,2.41 ± 0.22
RPSMASELMPSSRLWSLSYTKLPS [SLC25A39],2.99 ± 0.19,2.92 ± 0.26
RRAGAACTLRQKLIFSPCSDCEEE [WEE1],4.2 ± 0.25,4.39 ± 0.15
RRENYGVPPRRATISSWRNDRMST [RBMY1A1],3.31 ± 0.28,3.43 ± 0.068
RRKGEMGLSAEDGVWAVIISHQQC [TRIM15],2.36 ± 0.49,2.16 ± 0.21
RRMFSSLFQFSNCSQGQQLATFSS [CCDC3],2.31 ± 0.2,2.34 ± 0.98
RSGGHAPRVRELLLDALSPEQLVL [ESR2],2.82 ± 0.14,2.91 ± 0.34
RTADEATNTGPAGSSASTSPAPLD [DYRK1B],5.5 ± 0.28,5.34 ± 0.21
RTDYSGRGELSARQMHLARFLRML [RAD51],2.18 ± 0.42,2.38 ± 0.26
RTGSLFKIWLVVPSLLELAWEKLL [KLHDC10],2.84 ± 0.27,2.78 ± 0.31
RTHSVIKEETNHSEMAEDLCKIGS [IKZF1],4.9 ± 0.25,4.85 ± 0.46
RTPPKSPGDPSKDRAAKRLSLESE [TPPP],5.3 ± 0.14,4.99 ± 0.25
RVQAAAFGPGQTLLSSVHVLDLEA [ALKBH7],3.02 ± 0.42,3.3 ± 0.32
RVRSLETENRRLESKIREHLEKKG [KRT18],4.44 ± 0.26,4.99 ± 0.18
RVWLKRDSGQYWPSVYHAMPSPCS [WDFY2],2.26 ± 0.27,2.33 ± 0.46

Sequence,protein stability index (treatment: DMSO),"protein stability index (treatment: MLN4924 1 uM, 8 h)"
RYGQLIEINSHSLFSKWFSESGKL [TRIP13],2.27 ± 0.49,2.49 ± 0.83
RYIHSMSLVHMDIKPSNIFISRTS [WEE1],1.9 ± 0.47,2.46 ± 0.31
RYNDFVVFQEMLLHKFPYRMVPAL [SNX8],2.51 ± 0.41,2.22 ± 0.27
RYNFTPDPDFKDLGALKPLPACEF [NETO1],2.87 ± 0.19,2.93 ± 0.33
SAAPSNDQDGEYCPEVKLKTTGLE [SRPK2],5.28 ± 0.28,5.26 ± 0.26
SAEELRKARSNSTLSKSEYMVIEE [KCNA3],4.87 ± 0.17,4.93 ± 0.16
SALGPNVTKITLESFLAWKKRKRQ [ZC3H15],2.92 ± 0.14,3.14 ± 0.28
SAVADKLDNSRSILKRRYYRQHCT [CTDNEP1],3.24 ± 0.33,3.7 ± 0.49
SAVTSVRILQDEQYLMASDMAGKI [DCAF4],3.33 ± 0.18,3.29 ± 0.27
SCKLVRDKITGQSLGYGFVNYSDP [ELAVL3],2.4 ± 0.19,2.5 ± 0.37
SDEYKIRRERNNIAVRKSRDKAKM [CEBPB],4.75 ± 0.27,5 ± 0.17
SDGVYAIVATLLILDICEDNVPDP [TMEM175],2.86 ± 0.39,2.84 ± 0.51
SDGWWRGSYNGQIGWFPSNYVLEE [NCK2],2.89 ± 0.35,2.73 ± 0.12
SDSLLTGMAFFKMREMFFEDHIDD [CNOT7],2.58 ± 0.054,3.3 ± 0.48
SEEKLALDNNASASGNATQTESGS [C10orf62],5.55 ± 0.15,5.6 ± 0.19
SENARLVLQIDNAKLAADDFRTKY [KRT36],4.03 ± 0.2,4 ± 0.24
SESRGSSGRVKRERDREREPEAAS [USP39],5.53 ± 0.24,5.59 ± 0.19
SFQLEISGFLKEMACPYSVLISGD [FAM98B],2.56 ± 1.3,2.11 ± 0.74
SFQLFVEGYKDADYWLRRFEAEPL [PI4K2A],1.92 ± 0.41,2.35 ± 0.25
SGACGAFVHGLEDEMYEVRIAAVE [INTS4],2.71 ± 0.46,2.73 ± 0.5
SGAGRRKNATRETTSTLKAWLNEH [IRX6],3.55 ± 0.28,3.58 ± 0.23
SGKVSSSSSSLGNKLQTLSPSHKG [ZC2HC1A],4.31 ± 0.14,4.26 ± 0.091
